Test results taken from the nanobody polyreactivity screen of Harvey et al. (2022).

assay: yeast display, Sf9 membrane polyspecificity reagent, FACS + sequencing; frameworks hold sequencing errors
Summary of the method: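 In a synthetic yeast display library (Saccharomyces cerevisiae BJ5465), nanobody expression was induced with galactose for 36–48 hours. FACS gates were set low and high (top ~1%) using anti-HA fluorescence for expression and streptavidin fluorescence for binding of the Sf9 membrane reagent. Each polyreactivity label is drawn from the gate of origin.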

Row | Sequence | polyreactivity (PSR sort gate)
1 | QVQLVESGGGLVQAGGSLRLSCAASGIFYFYAMGWYRQAPGKERELVAAITSSGGNTTYADSVKGRFTISRDNAKNTVYLQMNSLKPEDTAVYYCNADYFQDRLDYWGQGTQVTVSS | low polyreactivity
2 | QVQLVESGGGLVQAGGSLRLSCAASGIIFAFSAMGWYRQAPGKERELVAGITSGGDTYYADSVKGRFTISRDNAKNTVYLQMNSLKPEDTAVYYCAADVQYPNRAGWLYWYATNFDYWGQGTQVTVSS | high polyreactivity
3 | QVQLVESGGGLVQAGGSLRLSCAASGIIFAGNAMGWYRQEPGKERELVAAISSGTTTNYADSVKGRFTISRDNAKNTVYLQMNSLKPEDTAVYYCAADDFPYKSDYWGQGTQVTVSS | low polyreactivity
4 | QVQLVESGGGLVQAGGSLRLSCAASGIIFASNAMGWYRQAPGKERELVAAINRSGGSTYYADSVKGRFTISRDNAKNTVYLQMNSMKPEDTAVYYCAADYRFYSPTKYSYDYWGQGTLVTVSS | high polyreactivity
5 | QVQLVESGGGLVQAGGSLRLSCAASGIIFATYAMGWYRQAPGKERELVAAISSGGRTYYADSVKGRFTISRDNAKNTVYFQMNSLKPEDTAVYYCAAKSGGRSSLYNYWGQGTQVTVSS | high polyreactivity
6 | QVQLVESGGGLVQAGGSLRLSCAASGIIFAVYAMGWYRQAPGKERELVAAISTSGGRTYYADSVKGRFTISRDNAKNTVYLQMNSLKPEDTAVYYCAAEYVGKGTPDDYDYWGQGTQVTVSS | high polyreactivity
7 | QVQLVESGGGLVQAGGSLRLSCAASGIIFAYYARRWYRHAPGKERELVAAISWSGTSTYYADSVKGRFTISRDNAKNTVYLQMNSLKPEDTAVYYCNAYGLYSDMDYWGQGTQVTVSS | high polyreactivity
8 | QVQLVESGGGLVQAGGSLRLSCAASGIIFAYYDMGLYRKAPGKERELVAAISSTGSNTYYADSVKGRFTISRDNAKNTVYLQMNSLKPEDTAVYYCAAGYAYYIGHGDYWGQGTQVTVSS | high polyreactivity
9 | QVQLVESGGGLVQAGGSLRLSCAASGIIFDDNAMGGYRQAPGKERELVAAITYSGGSTYYADSVKGRFTISRDKAKNTVYLQMNSLKPEDTAVYYCAADNRPIVGSYYYWGQGTQVTVSS | low polyreactivity
10 | QVQLVESGGGLVQAGGSLRLSCAASGIIFDDNAMGWYRQAPGKERELVAAINRDGSTYYADSVKGRFTISRDNAKNTVYLQLNSLKPEDTAVYYWAADFYGPRSAVYFLRYSTRYYWGQGTQVTVSS | low polyreactivity
11 | QVQLVESGGGLVQAGGSLRLSCAASGIIFDDYAMGWYRQATGKERELVAVISSSGGNTYYADSVKVRFTISRDNAKNSVYLQMNSLKPEDTAVYYCAATYYYKSIYWFEYWGQGTQVTVSS | low polyreactivity
12 | QVQLVESGGGLVQAGGSLRLSCAASGIIFDEYAMGWYRQAPGKEREMVAAITSGGSTYYADSVKGRFTISRDNAKNTVYLQMNSLKPEDTAVYYCNAYSSYGTFFYWAWPYYYWGQGTQVTVSS | high polyreactivity
13 | QVQLVESGGGLVQAGGSLRLSCAASGIIFDGNAMGGYRQAAGKERELVAAHTSSTDSTYYADSVKGRFTISRDNAKNTVYLQMNSLKPEDTAVYYCAADYPSKTFDYWGQGTQVTVSS | low polyreactivity
14 | QVQLVESGGGLVQAGGSLRLSCAASGIIFDGYAMGWYRQAPGKERELVAAISGHGGSTYYADSVKGRFTISRDNAKNTVYLQMNSLKPEDTAVYYCAAEYVYWRIGQYDYWGQGTQVTVSS | high polyreactivity
15 | QVQLVESGGGLVQAGGSLRLSCAASGIIFDHYAMGWYRQAPGKERELVAAISTGGGNTYYADSVKGRFTISRDNAKNTVYLQMNSLKPEDTAVYYCAARRGTGSYSYRYPYGYDYWGQGTQVTVSS | low polyreactivity
16 | QVQLVESGGGLVQAGGSLRLSCAASGIIFDRYAMGWYRQAPGKERELVAAITYGGGSTYYADSVKGRFTISRDNAKNTVYLQMNSLKTEDTAVYYCAAVPRSGMYYWGQGTQVTVSS | high polyreactivity
17 | QVQLVESGGGLVQAGGSLRLSCAASGIIFDTYAMGWYIQAPGKERELVAAISRSGDTTYYADSVKGRFTISRDNAKNTVYLQMNSLKPEDTAVYYCNARQSRWDKYDYWGQGTQVTVSS | high polyreactivity
18 | QVQLVESGGGLVQAGGSLRLSCAASGIIFDTYAMGWYRQAPGKERELVAAISRSGDTTYYADSVKGRFTISRDNAKNTVFLQMNSLKPEDTAVYYCNARQSRWDKYDYWGQGTQVTVSS | high polyreactivity
19 | QVQLVESGGGLVQAGGSLRLSCAASGIIFDTYAMGWYRQAPGKERELVAAISRSGDTTYYADSVKGRFTISRDNAKNTVYLQMNSLKPEDTAVYYCYARQSRWDKYDYWGQGTQVTVSS | high polyreactivity
20 | QVQLVESGGGLVQAGGSLRLSCAASGIIFDYNAMGWYRQAPGKERELVAAISGRSGRTYYADSVKGRFTISRDNAMNTVYLQMNSLKPEDTAVYYCAARWYAGGNYWGQGTQVTVSS | high polyreactivity
21 | QVQLVESGGGLVQAGGSLRLSCAASGIIFDYYAMGWYRPAPGKERELVAAINWNGGTPYYADSVKGRFTISRDYAKKTVFLQMNSLKPEDSAVYYCNTRGRYLMVDWGHGTQVTVSS | high polyreactivity
22 | QVQLVESGGGLVQAGGSLRLSCAASGIIFDYYAMGWYRQAPGKERELVAAITTSGGRTYYADSVKGRFTISRDNAKNTVNFQMNSLKPEDTAVYYCAASRPSPRPRYGYWGQGTQVTVSS | high polyreactivity

Row | Sequence | polyreactivity (PSR sort gate)
23 | QVQLVESGGGLVQAGGSLRLSCAASGIIFEYYAMGWSRPAPGKERQLVAAISSSGGSTYYADSVKVRFTISRDNAKNTVYLQMNSLKPEDTAVYYCATRYAASTSRWQYYYWGQGTQVTVSS | high polyreactivity
24 | QVQLVESGGGLVQAGGSLRLSCAASGIIFFFYDMGWYRQSPGKERELVAAISDDGVSTDYADSVKGRFTISRDNAKNTVYLQMNSLKPEDTAVYYCAAKTERVYPWFSFGYWVQGTQVTVSS | low polyreactivity
25 | QVQLVESGGGLVQAGGSLRLSCAASGIIFFLYAMGWYRPAPGKERELVAAISSGGSTYYADSVKGRFTISRDNAKNTVYLQMNSLKPEDTAVYYCNARYWPFRYYYWGQGTQVTVSS | high polyreactivity
26 | QVQLVESGGGLVQAGGSLRLSCAASGIIFFRNAMGWYRQAPGNERELVATITSGVSTNYADSVKGRFTISRDNAKNTVYLQKNSLKPEDTAVYYCATEGFPFYDFDYWGQGTQVTVSS | high polyreactivity
27 | QVQLVESGGGLVQAGGSLRLSCAASGIIFFTYAMGWYRQATGKERELVAAISSGGSTTYADSVKGRFTISRDNAKNTVYLQMNSLKPEDTAVYYCAAGTQAHDYVVRPIDMDYWGQGTQVTVSS | low polyreactivity
28 | QVQLVESGGGLVQAGGSLRLSCAASGIIFGEYAMGWYRQAPGKERELVAAISGSGSRTYYADSVKGRFTISRDNAKNTVYLQMNSLKPEDTAVYYCAVKGGGTRYGYWGQGTQVTVSS | high polyreactivity
29 | QVQLVESGGGLVQAGGSLRLSCAASGIIFGEYAMGWYRQAPGKERELVAAISQSGGTYYADSVKGRFTISRDNAKNTVYLQMNSLKPEDTAVYYCNADYWAYISRVRYDYWGQGTQVTVSS | low polyreactivity
30 | QVQLVESGGGLVQAGGSLRLSCAASGIIFGGYDMGWYRQAPGKERELVAAISWSGGSTYYADSVKGRFTISRDNAKNTVYLQMNSLKPEDTAVYYCAAAYYAPTRDYHYWGQGTQVTVSS | low polyreactivity
31 | QVQLVESGGGLVQAGGSLRLSCAASGIIFGGYTMGWYRQAPGKERELVAAISSTGASTYYADSVEGRFTISRDNAKNTVYLQMNSLKPEDTAVYYCNAKRAPWGTLYNYWGQGTQVTVSS | high polyreactivity
32 | QVQLVESGGGLVQAGGSLRLSCAASGIIFGHYAMGWYRQAPGKERELVAAIRSSGGTTYYADSVKGRFTISRDNAKNTVYLQMNSLKPEDTAVYYCAKRGVHLYHDYYWGQGTQVTVSS | low polyreactivity
33 | QVQLVESGGGLVQAGGSLRLSCAASGIIFGHYAMGWYRQAPGKERELVARITYSGTRTYYADSVKGRFTISRDNAKNTVYLQMNSLKPEDTAVYYCAAGYAYPRWVTAGNYWGQGTQVTVSS | high polyreactivity
34 | QVQLVESGGGLVQAGGSLRLSCAASGIIFGRYAMGWYRQAPGKEREFVAAITWRVGTTYYADSVKGRFTISRDNAKNTVYLQMNSLKPEDTAVYYCAARSRTGRYDYWGQGTQVTVSS | high polyreactivity
35 | QVQLVESGGGLVQAGGSLRLSCAASGIIFGRYAMGWYRQAPGKERELVAAINGSGGSTYYADSVKGRFTISRDNAKNTVYLQMNSLKPEDTAVYYCAVVYYGSIFVLEYDYWGQGTQVTVSS | high polyreactivity
36 | QVQLVESGGGLVQAGGSLRLSCAASGIIFGRYAMGWYRQAPGKERELVAAISGSGGITYYADSVKGRFTISRDNAKNTVYLQMNSLKPEDTAVYYCATRKYLTYNYWGQGTQVTVSS | high polyreactivity
37 | QVQLVESGGGLVQAGGSLRLSCAASGIIFGRYAMGWYRQAPGKERELVAAITSGGSTSYADSVKGRFTISRDNAKNTVYLQMNSLKPEDTAVYYCAVVFVWGWPGYYWGQGTQVTVSS | high polyreactivity
38 | QVQLVESGGGLVQAGGSLRLSCAASGIIFGRYAMGWYRQAPGKERELVAVISRSGGSTYYADSVKGRFTISRDYAKNSVYLQMNSLKPEDTAVYYCAARYTPTYNAGLDYWGQGSQVTVSS | high polyreactivity
39 | QVQLVESGGGLVQAGGSLRLSCAASGIIFGSYTMGWYIQAPGKERELVATISFSGGTTNYADSVKGRFTISRDNAKNTVYLQMNSLKPEDTAVYYCAARPAPATGKLDYWGQGTQVTVSS | low polyreactivity
40 | QVQLVESGGGLVQAGGSLRLSCAASGIIFGTYAMGWYRQAPGKERELVASITNGGNTNYADSVKGRFTISRDNAKNTVYLQMNSLKPEDTAVYYCAKDVPYWRPVVRYDYWGQGTQVTVSS | low polyreactivity
41 | QVQLVESGGGLVQAGGSLRLSCAASGIIFGVNVMGWYRQAPGKERELVATITWRGDSTYYADSVKGRFTISRDNAKNTVYLQMNSLKPEDTAVYYCARGARTGVREDDYWGQGTQVTVSS | low polyreactivity
42 | QVQLVESGGGLVQAGGSLRLSCAASGIIFGWNTMGWYRQAPGKEREFVAAISSSGGSTYADSVKGRFTISRDNAKNTVYLQMNSLKPEDTAVYYCAASKQPGSFEFDYWGQGTQVTVSS | high polyreactivity
43 | QVQLVESGGGLVQAGGSLRLSCAASGIIFGWYAMGWYRPAPGKERELVAGISIGGSTYYADSVKGRFTISRDNANNTVYLQMNSLKPEDTAVYYCAADSYFVLPWSDYWGQGTQVTVSS | high polyreactivity
